Laboratory results: US20240077502

Legend:
purified fetuin A = biological target: T1, purified fetuin A
T1 sequence (P02765 19-300, species assumed, looked up): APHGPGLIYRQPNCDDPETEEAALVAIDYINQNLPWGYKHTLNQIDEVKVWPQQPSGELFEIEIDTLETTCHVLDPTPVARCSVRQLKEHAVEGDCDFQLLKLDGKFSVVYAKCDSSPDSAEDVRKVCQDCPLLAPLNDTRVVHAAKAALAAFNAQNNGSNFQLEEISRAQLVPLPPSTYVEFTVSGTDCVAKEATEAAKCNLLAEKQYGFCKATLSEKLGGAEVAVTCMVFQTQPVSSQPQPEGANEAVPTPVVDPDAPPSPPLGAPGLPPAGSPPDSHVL
T1 sequence (P02765 341-367, species assumed, looked up): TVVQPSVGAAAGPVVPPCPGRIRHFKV

Abz-LMVGGK(Dnp)-CONH2 = biological target: T2, Abz-LMVGGK(Dnp)-CONH2
T2 chain: LMVGGK

[1] = biological target: T3, endogenous fetuin A in human plasma, P02765
T3 chain: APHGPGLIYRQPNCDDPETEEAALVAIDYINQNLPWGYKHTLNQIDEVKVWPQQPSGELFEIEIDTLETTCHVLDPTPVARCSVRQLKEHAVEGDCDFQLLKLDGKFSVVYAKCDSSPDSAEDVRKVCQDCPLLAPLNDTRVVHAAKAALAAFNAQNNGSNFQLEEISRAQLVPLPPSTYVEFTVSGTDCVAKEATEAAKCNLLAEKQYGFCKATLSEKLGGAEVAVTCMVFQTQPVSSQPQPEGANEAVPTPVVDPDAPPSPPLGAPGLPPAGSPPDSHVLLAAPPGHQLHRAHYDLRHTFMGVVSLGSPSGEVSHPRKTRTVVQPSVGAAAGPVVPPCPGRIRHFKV

Btn-LMVGG = biological target: T4, Btn-LMVGG
T4 chain: GLMVGGV

[2] = biological target: T5, LPESG substrate (flow cytometry panel)
T5 chain: LPESG

Abz-LPESGK(Dnp)-CONH2 = biological target: T6, Abz-LPESGK(Dnp)-CONH2
T6 chain: LPESGK

[3] = biological target: T7, LPPAG substrate (flow cytometry panel)
T7 chain: LPPAG

Sequence of Aβ40, P05067 (P05067 whole entry, looked up): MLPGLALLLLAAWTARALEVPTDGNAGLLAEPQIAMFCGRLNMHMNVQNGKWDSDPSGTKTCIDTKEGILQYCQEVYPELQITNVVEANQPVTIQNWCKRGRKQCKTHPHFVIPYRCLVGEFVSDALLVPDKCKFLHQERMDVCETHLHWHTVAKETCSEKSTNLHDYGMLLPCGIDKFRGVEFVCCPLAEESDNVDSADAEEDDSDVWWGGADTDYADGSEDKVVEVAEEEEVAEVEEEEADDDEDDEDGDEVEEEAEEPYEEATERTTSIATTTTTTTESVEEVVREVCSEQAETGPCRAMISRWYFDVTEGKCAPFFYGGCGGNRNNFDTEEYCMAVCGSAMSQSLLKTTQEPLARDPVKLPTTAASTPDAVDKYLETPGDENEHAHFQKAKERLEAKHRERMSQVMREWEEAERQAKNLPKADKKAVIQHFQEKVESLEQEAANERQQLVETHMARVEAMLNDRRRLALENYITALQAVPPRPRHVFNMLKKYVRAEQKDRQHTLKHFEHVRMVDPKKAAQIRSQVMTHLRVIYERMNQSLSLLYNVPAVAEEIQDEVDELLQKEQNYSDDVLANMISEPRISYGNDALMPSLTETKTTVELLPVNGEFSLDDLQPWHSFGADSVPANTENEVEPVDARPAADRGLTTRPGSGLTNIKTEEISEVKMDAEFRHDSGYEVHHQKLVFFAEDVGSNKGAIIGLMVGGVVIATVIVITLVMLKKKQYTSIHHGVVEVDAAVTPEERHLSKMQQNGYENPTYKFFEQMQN
Sequence of Aβ42, P05067 (P05067 whole entry, looked up): as above
Sequence of AβM1-42, P05067 (P05067 whole entry, looked up, tested part not stated): as the sequence (P05067 whole entry, looked up) above
Sequence of AβM1-40, P05067 (P05067 whole entry, looked up, tested part not stated): as the sequence (P05067 whole entry, looked up) above
Sequence of Aβ43, P05067 (P05067 whole entry, looked up): as above

B1: SrtA 8.5-H3 (protein)
chain: MKKWTNRLMTIAGVVLILVAAYLFAKPHIDNYLHDKDKDEKIEQYDKNVKEQASKDKKQQARPQIPKDKSKVAGYIEIPDADIKEPVYPGPATREQLDRGVSFVEEDESLDDQNISIIGHTALLRPNYQFTNLRAAKIGSMVYFKVGNETRKYKMTSIRNVKPTAVEVLDEQEGKDRQLTLATCDDYNIETGVWESSKIFVATEVK
**Q.** What does the source list for B1?
**A.** labeling with GGGK(Btn), Western blot (purified fetuin A): Labeled fetuin A is detected by Western blot; KM (Abz-LMVGGK(Dnp)-CONH2): KM=52 µM (95% CI=29 to 103 µM); kcat (Abz-LMVGGK(Dnp)-CONH2): kcat=0.012 s-1 (95% CI=0.009 to 0.017 s-1); percent of substrate converted to product (HPLC assay for SrtA activity) (Abz-LMVGGK(Dnp)-CONH2): converting 10% of M substrate to product in two hours; labeling with GGGK(Btn) in human plasma, Western blot [1]: Western blot of overnight reaction of SrtA 8.5-H3 (50 µM) and GGGK[SEQ ID NO: 6](Btn) (1 mM) in human plasma shows labeling of endogenous fetuin A

B2: minimal mutant (4S.6 with S118I, G134R, R159C, K177R, V182A, and R197S mutations) (protein)
chain: QAKPQIPKDKSKVAGYIEIPDADIKEPVYPGPATREQLDRGVSFVEENESLDDQNISIIGHTAIDRPNYQFTNLRAAKKGSMVYFKVGNETRKYKMTSICNVKPTAVEVLDEQKGKDRQLTLATCDDYNVETGVWETSKIFVATEVK
**Q.** For B2, which “fold change of activity against 4S.6 (flow cytometry)” value (Btn-LMVGG) is on record?
**A.** 4-fold improvement in LMVGG [SEQ ID NO: 3] activity relative to 4S.6

**Q.** And the “fold change of activity against SrtAβ (flow cytometry)” value (Btn-LMVGG)?
**A.** 23-fold lower activity than SrtAβ

B3: round 7 consensus sequence (R7) reversion mutant Y94R (protein)
chain: QAKPQIPKDKSKVAGYIEIPDADIKEPVYPGPATREQLDRGVSFVEENESLDDQNISIIGHTALLRPNYQFTNLRAAKIGSMVYFKVGNETRKYKMTSIRNVKPTAVEVLDEQEGKDKQLTLATCDDYNFETGVWESSKIFVATEVK
**Q.** How did the “fold change of activity against the round 7 consensus sequence (flow cytometry, 100-1000 nM Btn-LMVGG)” value (Btn-LMVGG) turn out when B3 was run?
**A.** Reversion mutant Y94R showed a 2.3-fold improvement on average across substrate concentrations compared to the round 7 consensus sequence

B4: round 7 consensus sequence (R7) reversion mutant L124D (protein)
chain: QAKPQIPKDKSKVAGYIEIPDADIKEPVYPGPATYEQLDRGVSFVEENESLDDQNISIIGHTALDRPNYQFTNLRAAKIGSMVYFKVGNETRKYKMTSIRNVKPTAVEVLDEQEGKDKQLTLATCDDYNFETGVWESSKIFVATEVK
**Q.** Which “fold change of activity against the round 7 consensus sequence (flow cytometry, 100-1000 nM Btn-LMVGG)” value (Btn-LMVGG) does the source give for B4 here?
**A.** L124D (1.1-fold)

B5: round 7 consensus sequence (R7) reversion mutant L123I (protein)
chain: QAKPQIPKDKSKVAGYIEIPDADIKEPVYPGPATYEQLDRGVSFVEENESLDDQNISIIGHTAILRPNYQFTNLRAAKIGSMVYFKVGNETRKYKMTSIRNVKPTAVEVLDEQEGKDKQLTLATCDDYNFETGVWESSKIFVATEVK
**Q.** For B5, which “fold change of activity against the round 7 consensus sequence (flow cytometry, 100-1000 nM Btn-LMVGG)” value (Btn-LMVGG) is on record?
**A.** L123I (1.5-fold)

B6: sortase 4S.6 (protein)
chain: QAKPQIPKDKSKVAGYIEIPDADIKEPVYPGPATREQLDRGVSFVEENESLDDQNISISGHTAIDRPNYQFTNLGAAKKGSMVYFKVGNETRKYKMTSIRNVKPTAVEVLDEQKGKDKQLTLVTCDDYNVETGVWETRKIFVATEVK
**Q.** How did the kinetic parameters (Abz-LMVGGK(Dnp)-CONH2) turn out when B6 was run?
**A.** 4S.6 activity on LMVGG [SEQ ID NO: 3] was not detectable

**Q.** What about the “substrate preference, LPESG over LMVGG (flow cytometry)” value [2] of the same protein?
**A.** 49-fold preference for LPESG [SEQ ID NO: 4] over LMVGG [SEQ ID NO: 3]

**Q.** What about the KM (Abz-LPESGK(Dnp)-CONH2) of the same protein?
**A.** KM=610 µM (95% CI=90 to 5550 µM)

**Q.** And the kcat (Abz-LPESGK(Dnp)-CONH2)?
**A.** kcat=0.36 s-1 (95% CI=0.22 to 0.96 s-1)

**Q.** What about the “labeling with GGGK(Btn) in human plasma, Western blot” value [1] of the same protein?
**A.** 4S.6, but not SrtAβ, labels fetuin A

B7: SrtAβ (protein)
chain: MKKWTNRLMTIAGVVLILVAAYLFAKPHIDNYLHDKDKDEKIEQYDKNVKEQASKDKKQQAKPQIPKDKSKVAGYLEIPDADIKEPVYPGPATREQLDRGVCFVDEDESLDDQNISIIGHTALLRPHYQFTNLRAAKLDSIVYFTVGNETRRYKITSICNVRPTAVEVLDEHEGKDRQLTLATCDDYNYETGVWESSKIFVATEVR
**Q.** Which “change in substrate preference against 4S.6 (flow cytometry)” value (Btn-LMVGG) does the source give for B7 here?
**A.** 1,470-fold change in preference to favor LMVGG [SEQ ID NO: 3] over LPESG [SEQ ID NO: 4]

**Q.** What about the “fold change of activity against 4S.6 (flow cytometry, yeast display)” value (shortened to “fold change … (flow cytometry, yeast display)”) (Btn-LMVGG) of the same protein?
**A.** 28-fold increased activity on LMVGG

**Q.** And the “substrate preference, LMVGG over LPESG (flow cytometry)” value (Btn-LMVGG)?
**A.** 30-fold preference for LMVGG [SEQ ID NO: 3] over LPESG [SEQ ID NO: 4]

**Q.** What about the “fold change … (flow cytometry, yeast display)” value [3] of the same protein?
**A.** 11-fold reduced activity on LPPAG

**Q.** What about the KM (Abz-LMVGGK(Dnp)-CONH2) of the same protein?
**A.** KM=128 µM (95% CI=87 to 198 µM)

**Q.** What about the kcat (Abz-LMVGGK(Dnp)-CONH2) of the same protein?
**A.** kcat=0.018 s-1 (95% CI=0.015 to 0.023 s-1)

**Q.** What about the “conversion to transpeptidation product with GGGRR (HPLC)” value (AβM1-42, P05067) of the same protein?
**A.** 64% of the starting AβM1-42 was converted to the desired product

**Q.** And the “fold change … (flow cytometry, yeast display)” value [2]?
**A.** 53-fold reduced activity on LPESG

**Q.** And the “conversion to transpeptidation product with GGGK(Btn) (HPLC)” value (AβM1-40, P05067)?
**A.** 82% of the starting AβM1-40 was converted to the desired product

**Q.** And the “kinetic parameters (HPLC assay)” value (Abz-LPESGK(Dnp)-CONH2)?
**A.** SrtAβ activity on LPESG [SEQ ID NO: 4] was too low to establish accurate kinetic parameters

**Q.** What about the “activity on fetuin A in human plasma (streptavidin pulldown, Coomassie)” value [1] of the same protein?
**A.** a sortase variant with greatly reduced activity on fetuin A relative to the starting sortase 4S.6 was generated

**Q.** What about the “labeling with GGGK(Btn) in human plasma, Western blot” value [1] of the same protein?
**A.** 4S.6, but not SrtAβ, labels fetuin A

**Q.** What about the “conversion to transpeptidation product with 200 µM GGGRR (HPLC)” value (Aβ42, P05067) of the same protein?
**A.** as opposed to 50% when reacted with 200 µM GGGRR

**Q.** What about the “conversion to transpeptidation product with 1 mM GGGRR (HPLC)” value (Aβ42, P05067) of the same protein?
**A.** 64% of the Aβ42 was converted to the expected product when reacted with 1 mM GGGRR

**Q.** And the “modification by the sortase” value (Aβ42, P05067)?
**A.** SrtAβ has been shown to modify Aβ40, Aβ42, and Aβ43

**Q.** And the “biotinylated product formed in human plasma (streptavidin capture ELISA)” value (Aβ40, P05067)?
**A.** 1.5 µM SrtAβ generating 2.3 µM of biotinylated product from 5 µM Aβ40 in two hours

**Q.** What about the “lowest Aβ40 concentration at which labeling was observed in human plasma (m266 capture ELISA)” value (Aβ40, P05067) of the same protein?
**A.** labeling of Aβ40 spiked into human plasma at concentrations as low as 5 nM was observed

**Q.** And the “modification by the sortase” value (Aβ40, P05067)?
**A.** SrtAβ has been shown to modify Aβ40, Aβ42, and Aβ43

**Q.** And the “yield of transpeptidation products with glycine nucleophiles (HPLC)” value (Aβ40, P05067)?
**A.** the expected transpeptidation products were observed in yields of 80-88%

**Q.** What about the “modification by the sortase” value (Aβ43, P05067) of the same protein?
**A.** SrtAβ has been shown to modify Aβ40, Aβ42, and Aβ43

B8: SrtAβ reversion mutant C159R (protein)
chain: MKKWTNRLMTIAGVVLILVAAYLFAKPHIDNYLHDKDKDEKIEQYDKNVKEQASKDKKQQAKPQIPKDKSKVAGYLEIPDADIKEPVYPGPATREQLDRGVCFVDEDESLDDQNISIIGHTALLRPHYQFTNLRAAKLDSIVYFTVGNETRRYKITSIRNVRPTAVEVLDEHEGKDRQLTLATCDDYNYETGVWESSKIFVATEVR
**Q.** B8 was tested. Which reduction of activity against SrtAβ (flow cytometry, yeast display) (Btn-LMVGG) did it give?
**A.** 2 fold

B9: SrtAβ reversion mutant A182V (protein)
chain: MKKWTNRLMTIAGVVLILVAAYLFAKPHIDNYLHDKDKDEKIEQYDKNVKEQASKDKKQQAKPQIPKDKSKVAGYLEIPDADIKEPVYPGPATREQLDRGVCFVDEDESLDDQNISIIGHTALLRPHYQFTNLRAAKLDSIVYFTVGNETRRYKITSICNVRPTAVEVLDEHEGKDRQLTLVTCDDYNYETGVWESSKIFVATEVR
**Q.** With B9 as the protein, how does the reduction of activity against SrtAβ (flow cytometry, yeast display) (Btn-LMVGG) read?
**A.** 2 fold

B10: SrtAβ reversion mutant R177K (protein)
chain: MKKWTNRLMTIAGVVLILVAAYLFAKPHIDNYLHDKDKDEKIEQYDKNVKEQASKDKKQQAKPQIPKDKSKVAGYLEIPDADIKEPVYPGPATREQLDRGVCFVDEDESLDDQNISIIGHTALLRPHYQFTNLRAAKLDSIVYFTVGNETRRYKITSICNVRPTAVEVLDEHEGKDKQLTLATCDDYNYETGVWESSKIFVATEVR
**Q.** For B10, which reduction of activity against SrtAβ (flow cytometry, yeast display) (Btn-LMVGG) is on record?
**A.** 2 fold

B11: SrtAβ reversion mutant R134G (protein)
chain: MKKWTNRLMTIAGVVLILVAAYLFAKPHIDNYLHDKDKDEKIEQYDKNVKEQASKDKKQQAKPQIPKDKSKVAGYLEIPDADIKEPVYPGPATREQLDRGVCFVDEDESLDDQNISIIGHTALLRPHYQFTNLGAAKLDSIVYFTVGNETRRYKITSICNVRPTAVEVLDEHEGKDRQLTLATCDDYNYETGVWESSKIFVATEVR
**Q.** For B11, which reduction of activity against SrtAβ (flow cytometry, yeast display) (Btn-LMVGG) is on record?
**A.** 2 fold
